These results are taken from article PMC9714666 (Frontiers in Immunology, 2022).

The assay deals with 6x(His)-tagged SARS-CoV-1 RBD (SARS-CoV-1, strain , UniProt P59594). Nature of the assay: BLI. The settings on record: both partners purified.

Some results are limits rather than exact numbers.

B1: D27LE (antibody, V domains shown)
VH: QVQLQQSGAEVKKPGSSVKVSCKASGGTFGNWSISWVRQAPGQGLEWMGGIDPSRGEATYAQKFQGRVTITTDESTSTAYMELSSLRSEDTAVYYCARETWYTSGGMDVWGQGTTVTVSS
VL: SYELTQPPSVSVAPGKTARITCGGNNIGRKSVHWYQQKPGQAPVLVVYDDSDRPSGIPERFSGSNSGNTATLTISRVEAGDEADYYCQVYDLWSSDYVFGTGTKVEIK
What is called Kd is the free concentration of one partner at which half of the binding sites on the other are occupied at equilibrium, for simple one-to-one binding. The molecule B1 had a Kd below 10 pM.
